This series deals with the molecule itself. Put plainly: phase separation.

B1: FUS low complexity N-terminal domain (residues 1-163) (domain or fragment, human, UniProt P35637 1-163, looked up)
chain: MASNDYTQQATQSYGAYPTQPGQGYSQQSSQPYGQQSYSGYSQSTDTSGYGQSSYSSYGQSQNTGYGTQSTPQGYGSTGGYGSSQSSQSSYGQQSSYPGYGQQPAPSSTSGSYGSSSQSSSYGQPQSGSYSQQPSYGGQQQSYGQQQSYNPPQGYGQQNQYNS
Consider B1, for which the binding result was “binds”.

For the origin of these results see article PMC4609301 (Molecular cell, 2015).
